The record followed here is patent publication US20170355774A1 (Regeneron, published 2017).

The target of experiment [1] is T1, human GITR (amino acids M1-V241, NCBI Accession #NP_004186.1) expressed on cells (human, UniProt Q9Y5U5 26-241).
T1 construct: also called hGITR; hGITR/HEK293-D9
T1 sequence: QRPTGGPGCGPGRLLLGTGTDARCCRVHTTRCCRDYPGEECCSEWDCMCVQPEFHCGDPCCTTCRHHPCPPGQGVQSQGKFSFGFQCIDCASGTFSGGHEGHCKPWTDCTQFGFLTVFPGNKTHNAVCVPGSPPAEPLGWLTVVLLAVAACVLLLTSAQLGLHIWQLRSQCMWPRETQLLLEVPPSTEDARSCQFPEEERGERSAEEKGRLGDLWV
Briefly: ECL cell binding, hGITR/HEK293-D9. The method, then:
Nonspecific binding sites were blocked with 2% BSA (w/v)+PBS for 1 h at room temperature (RT). Next, serial dilutions of anti-GITR antibodies, ranging from 1.7 pM to 100 nM, were added to cells for 1 h at RT. Plates were then washed to remove unbound antibodies (AquaMax2000 plate washer, MSD Analytical Technologies) and plate-bound antibodies were detected with a SULFO-TAG™ conjugated anti-human kappa light chain IgG antibody (Jackson Immunoresearch) for 1 h at RT.
Following washes, luminescent signals were recorded with a SECTOR Imager 6000 (MSD) instrument. Direct binding signals (relative light units, RLU) were analyzed as a function of the antibody concentration and data were fitted with a sigmoidal (four-parameter logistic) dose-response model using GraphPad Prism™ software. […] The signal detected with 100 nM antibody binding to the hGITR expressing cells versus parental cells was recorded as an indication of intensity and specificity of GITR binding.

In experiment [2] the target is T1, human GITR (amino acids M1-V241, NCBI …). Description: cell-based or functional assay.
Experiment [3] has the same target. Description: cell-based or functional assay. The source holds these as a separate data set.
A further experiment deals with T2, mfGITR.mmh (Macaca fasicularis).
T2 construct: soluble monomeric construct; also called Macaca fasicularis (mf) GITR.mmh; cynomolgus GITR protein
T2 chain: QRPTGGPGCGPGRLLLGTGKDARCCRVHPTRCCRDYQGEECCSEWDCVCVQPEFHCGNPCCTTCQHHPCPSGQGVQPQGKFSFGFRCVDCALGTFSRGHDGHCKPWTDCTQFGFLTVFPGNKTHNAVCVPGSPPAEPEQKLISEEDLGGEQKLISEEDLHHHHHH
Description: SPR 37C, mAb capture. The method, then: (§1) (Table 3). […] GITR proteins were injected over the sensor surface at a flow rate of 30 μL/minute. All Biacore binding studies were performed in a buffer composed of 0.01M HEPES pH 7.4, 0.15M NaCl, 3 mM EDTA, 0.05% v/v Surfactant P20 (HBS-ET running buffer). Antibody-reagent association was monitored for 4 minutes while dissociation in HBS-ET running buffer (10 mM HEPES, 150 mM NaCl, 3 mM EDTA, 0.05% (v/v) Surfactant P20, pH 7.4) was monitored for 10 minutes. Kinetic association (kₐ) and dissociation (kd) rate constants were determined by fitting the real-time sensorgrams to a 1:1 binding model using Scrubber 2.0c curve fitting software. Binding dissociation equilibrium constants (KD) and dissociative half-lives (t ½) were calculated from the kinetic rate constants as: KD [M]=kd/kₐ; and t_{1/2}(min)=(ln 2/(60*kd). Results are summarized in Table 3.

Another experiment has as its target T3, hGITR.mmh (human).
T3 construct: soluble monomeric construct; also called human (h) GITR.mmh; monomeric human GITR
T3 chain: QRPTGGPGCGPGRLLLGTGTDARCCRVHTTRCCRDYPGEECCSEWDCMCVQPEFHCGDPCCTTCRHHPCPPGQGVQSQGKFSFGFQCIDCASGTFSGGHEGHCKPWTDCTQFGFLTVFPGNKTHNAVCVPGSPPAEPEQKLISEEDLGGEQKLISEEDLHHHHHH
Description: SPR 37C, mAb capture. How it is done: as §1

In a further experiment the target is T4, hGITR.mFc (human).
T4 construct: soluble dimeric construct with mouse Fc; also called dimeric human GITR
T4 chain: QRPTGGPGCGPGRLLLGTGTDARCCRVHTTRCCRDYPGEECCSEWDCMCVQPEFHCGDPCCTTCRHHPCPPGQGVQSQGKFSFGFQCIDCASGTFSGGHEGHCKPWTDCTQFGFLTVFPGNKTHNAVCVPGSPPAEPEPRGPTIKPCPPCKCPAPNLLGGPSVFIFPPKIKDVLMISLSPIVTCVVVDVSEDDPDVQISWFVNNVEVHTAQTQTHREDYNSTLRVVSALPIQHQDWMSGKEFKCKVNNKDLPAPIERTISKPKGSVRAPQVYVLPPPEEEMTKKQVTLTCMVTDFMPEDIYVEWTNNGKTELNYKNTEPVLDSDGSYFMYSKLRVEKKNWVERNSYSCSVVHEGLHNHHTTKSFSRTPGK
Briefly: SPR 37C, mAb capture. How it is done:
as §1

In experiment [4] the target is T1, human GITR (amino acids M1-V241, NCBI …). Briefly: cell-based or functional assay. The source holds these as a separate data set.

B1: H4H14476P (antibody, human IgG4, V domains shown)
VH: QVQLVESGGGVVQPGRSLRLSCAASGFTFSNYGIHWVRQPPGQGLEWVAVIWYAGSNKFYADSVKGRFTISRDNSKNSAYLQMNSLRAEDTAVYYCARAPLGYYYYGMDVWGQGTTVTVSS
VL: DIQMTQSPSSLSASVGDRVTITCRASQGIRNDLGWYQQKPGKAPKRLIYDASSLESGVPSRFSGSGSGTEFTLTISSLQPEDFATYYCLQHNSYPWTFGQGTKVEIK
notes: human IgG4 (H4H)
On to B1, for which, in experiment [1], the “Average Signal (RLU) at 100 nM” value is 8120 RLU and the EC50 was 0.57 nM. In experiment [2], the “fold activation, T-cell proliferation, 22 nM, non-anchored, donor 1” value stood at 0.7 fold; the “fold activation, T-cell proliferation, 22 nM, non-anchored, donor 2” value came to 0.9 fold; the “fold activation, T-cell proliferation, 22 nM, non-anchored, donor 3” value was determined as 0.9 fold; the “fold activation, T-cell proliferation, 22 nM, non-anchored, donor 4” value is 0.8 fold. Also, the “fold activation, T-cell proliferation, 22 nM, non-anchored, mean” value in experiment [2] was found to be 0.8 fold. In experiment [3], the “% Activation, NF-kB-Luc, non-anchored” value amounted to 10%; the “% Blocking, NF-kB-Luc, non-anchored” value was 90%; the “EC50, hGITR activation, NF-kB-Luc, non-anchored” value (from here on “EC50 … non-anchored”) came out at 1 nM; the “IC50, blocking of hGITRL stimulation, NF-kB-Luc, non-anchored” value (from here on “IC50, blocking … non-anchored”) came to 2.6 nM. For the same molecule, in the experiment with mfGITR.mmh, binding was characterised by a dissociation constant (Kd) of 55.8 nM, the koff was 0.0107 s⁻¹, the kon came out at 191000 M⁻¹ s⁻¹ and the t½ stood at 1.1 min. Moreover, in the experiment with hGITR.mmh, the Kd is 31.4 nM, the koff turned out to be 0.0123 s⁻¹, the kon amounted to 392000 M⁻¹ s⁻¹ and the t½ was 0.9 min. In the experiment with hGITR.mFc, binding was put at a Kd of 0.297 nM, the koff turned out to be 0.000269 s⁻¹, the kon came out at 906000 M⁻¹ s⁻¹ and the t½ was 42.9 min. In experiment [4], the “fold activation, T-cell proliferation, 33 nM, FcgR anchored, donor 1” value was determined as 0.6 fold; the “fold activation, T-cell proliferation, 33 nM, FcgR anchored, donor 2” value amounted to 0.2 fold; the “fold activation, T-cell proliferation, 33 nM, FcgR anchored, donor 3” value stood at 0.8 fold; the “fold activation, T-cell proliferation, 33 nM, FcgR anchored, donor 4” value is 0.8 fold. Also, in experiment [4], the “fold activation, T-cell proliferation, 33 nM, FcgR anchored, donor 5” value came out at 0.1 fold and the “fold activation, T-cell proliferation, 33 nM, FcgR anchored, mean” value amounted to 0.5 fold.

B2: H1H14493P (antibody, human IgG1, V domains shown)
VH: QVQLVESGGGVVQPGRSLRLSCAASGFNFRSYGMHWVRQAPGKGLEWVAVIWYDGSNKYYADSVKGRFTISRDSSRDTLFLQMNSLRAGDTAVYYCARGGMLGRDYYYGMDVWGQGTTVTVSS
VL: DIQMTQSPSSLSASVGDRVTITCRASQGIRNDLGWYQQKPGKAPKRLIYAASSLQSGVPSRFSGSGSGTEFTLTISSLQPEDFATYYCLQHNSYPNTFGQGTKLEIK
notes: human IgG1 (H1H)
With B2, in experiment [1], the “Average Signal (RLU) at 100 nM” value worked out at 7220 RLU and a half-maximal response (EC50) required 0.3 nM. In experiment [3], the “% Activation, NF-kB-Luc, non-anchored” value is 25%; the “% Blocking, NF-kB-Luc, non-anchored” value is 90%; the “EC50 … non-anchored” value amounted to 1.2 nM; the “IC50, blocking … non-anchored” value was determined as 0.6 nM. In the experiment with mfGITR.mmh, this molecule returned a Kd of 1400 nM, a koff of 0.014 s⁻¹, a kon of 10000 M⁻¹ s⁻¹ and a t½ of 0.8 min. Besides, in the experiment with hGITR.mmh, binding was put at a Kd of 13.4 nM, the koff turned out to be 0.0025 s⁻¹, the kon is 186000 M⁻¹ s⁻¹ and the t½ was 4.6 min. In the experiment with hGITR.mFc, this molecule registered a Kd of 0.365 nM, a koff of 0.000191 s⁻¹, a kon of 524000 M⁻¹ s⁻¹ and a t½ of 60.4 min.

B3: H1H14486P (antibody, human IgG1, V domains shown)
VH: QVQLVESGGGVVQPGRSLRLSCAASGFTFSNYGMHWVRQAPGKGLEWVAVIWYPGSNKFYTDSVEGRFTISRDNSKNTVYLQMDSLRAEDTAVYYCARGGALGVDYYYGMDVWGQGTTVTVSS
VL: AIQMTQSPSSLSASVGDRVTLTCRASQGIRNDLGWYQQKPGKAPNFLIYSASSLQSGVPSRFSGSGSGTDFTLTISSLQPEDFATYYCLQNYNYPWTFGQGTKVEIK
notes: human IgG1 (H1H)
As to B3, in experiment [1], the “Average Signal (RLU) at 100 nM” value is 5830 RLU and a half-maximal effect (EC50) was put at 0.43 nM. In addition, in experiment [3], the “% Activation, NF-kB-Luc, non-anchored” value is 30%; the “% Blocking, NF-kB-Luc, non-anchored” value turned out to be 50%; the “EC50 … non-anchored” value came out at 1.2 nM; the “IC50, blocking … non-anchored” value was determined as 1.1 nM. In the experiment with mfGITR.mmh, the Kd turned out to be 122 nM, the koff is 0.0166 s⁻¹, the kon was found to be 137000 M⁻¹ s⁻¹ and the t½ is 0.7 min. In the experiment with hGITR.mmh, this molecule returned a Kd of 2.79 nM, a koff of 0.00123 s⁻¹, a kon of 439000 M⁻¹ s⁻¹ and a t½ of 9.4 min. In the experiment with hGITR.mFc, this molecule showed a Kd of 0.159 nM, a koff of 0.000153 s⁻¹, a kon of 965000 M⁻¹ s⁻¹ and a t½ of 75.5 min.

B4: H1H14491P (antibody, human IgG1, V domains shown)
VH: QVQLVESGGGVVQPGRSLRLSCVASGFTFSDYGMHWVRQAPGKGLEWVAVIWYEGSNKYYADSVTGRFTISRDNSKNTLFLQMNSLKAEDTAEYYCAKDGGQLAYQYYYGMDVWGQGTTVTVSS
VL: AIQMTQSPSSLSASVGDRVTLTCRASQGIRNDLGWYQQKPGKAPKSLIYAASNLQSGVPSRFSGSGSGTDFTLTISSLQPEDSATYYCLQDYNYPRTFGQGTKVEIK
notes: human IgG1 (H1H)
B4: in experiment [1], the “Average Signal (RLU) at 100 nM” value came out at 6840 RLU and it took 0.4 nM to reach a half-maximal effect (EC50). Also, in experiment [3], the “% Activation, NF-kB-Luc, non-anchored” value stood at 60%; the “% Blocking, NF-kB-Luc, non-anchored” value worked out at 90%; the “EC50 … non-anchored” value was determined as 2 nM; the “IC50, blocking … non-anchored” value is 0.6 nM. In the experiment with mfGITR.mmh, this molecule returned a Kd of 75.3 nM, an off-rate (koff) of 0.00889 s⁻¹, a kon of 118000 M⁻¹ s⁻¹ and a t½ of 1.3 min. In the experiment with hGITR.mmh, this molecule had a Kd of 5.06 nM, a koff of 0.00162 s⁻¹, a kon of 319000 M⁻¹ s⁻¹ and a t½ of 7.2 min. In the experiment with hGITR.mFc, this molecule displayed a Kd of 0.201 nM, a koff of 0.000169 s⁻¹, a kon of 842000 M⁻¹ s⁻¹ and a t½ of 68.3 min.

B5: H1H14520P (antibody, human IgG1, V domains shown)
VH: QVQLVESGGGVVQPGRSLRLSCAASGFTFSSFGMHWVRQAPGKGLEWVAVISYDGRNRYYADSVKGRFTISRDNSKNTLYLQMNSLSAEDTAMFYCAKDGFGNSFDYWGQGTLVTVSS
VL: DVVMTQSPLSLPVTLGQPASISCRSSQSLLYSDGNTYLTWFQQRPGQSPRRLIYKVSNRDSGVPDRFSGSGSGTDFTLTISRVEAEDVGIYYCMQGTHWPWTFGQGTKVEIK
notes: human IgG1 (H1H)
In the case of B5, in experiment [1], the “Average Signal (RLU) at 100 nM” value came out at 6450 RLU and the EC50 is 0.24 nM. Further, in experiment [3], the “% Activation, NF-kB-Luc, non-anchored” value was determined as 10%; the “% Blocking, NF-kB-Luc, non-anchored” value came out at 80%; the “EC50 … non-anchored” value was 1.1 nM; the “IC50, blocking … non-anchored” value was found to be 0.9 nM. Besides, in the experiment with mfGITR.mmh, binding was put at a Kd of 85.9 nM, the koff was found to be 0.0171 s⁻¹, the kon worked out at 199000 M⁻¹ s⁻¹ and the t½ came to 0.7 min. For the same molecule, in the experiment with hGITR.mmh, the Kd is 63 nM, the koff worked out at 0.0167 s⁻¹, the kon was determined as 266000 M⁻¹ s⁻¹ and the t½ was determined as 0.7 min. In the experiment with hGITR.mFc, this molecule showed a Kd of 0.537 nM, a koff of 0.000583 s⁻¹, a kon of 1.09e+06 M⁻¹ s⁻¹ and a t½ of 19.8 min.
